Source: publication PMC6497303, “Molecular understanding of calcium permeation through the open Orai channel” (PLoS Biology, 2019)

Molecular target: the molecule itself
Assay: crystal structure; purified dOrai-P288L in NG/NM detergent with POPC:POPE:POPG lipid, sitting drop, 17°C, sodium citrate pH 6.5, PEG400; 4.5 Å; 2 hexamers in each asymmetric unit

B1: Drosophila melanogaster Orai (dOrai) mutant (P288L) channel, amino acids 132 to 341 with C224S, C283T and P288L (domain or fragment, UniProt Q9U6B8 132-341, looked up)
chain: SMSQSGEDLHSPTYLSWRKLQLSRAKLKASSKTSALLSGFAMVAMVEVQLDHDTNVPPGMLIAFAICTTLLVAVHMLALMISTCILPNIETVSNLHSISLVHESPHERLHWYIETAWAFSTLLGLILFLLEIAILCWVKFYDLSPPAAWSATVVLILVMIIFMAFAIHFYRSLVSHKYEVTVSGIRELEMLKEQMEQDHLEHHNNIRNNG
notes: Orai, Drosophila melanogaster, UniProt Q9U6B8, residues 132 to 341 with C224S, C283T and P288L; codons optimised for Homo sapiens; PreScission site between Orai and eGFP; residues of the site may be left after 3C cleavage; also called dOrai-P288L; dOrai-P288L channel; not shown: eGFP, C-terminal, cleaved
stoichiometry N: 6
